Publication PMC9636508, “Reciprocal interactions among Cobll1, PACSIN2, and SH3BP1 regulate drug resistance in chronic myeloid leukemia” (Cancer Medicine, 2022)

How the values were obtained:
[1] = target: T1, Cobll1-NT-f (N-terminal region of Cobll1, residues 1-410) (UniProt Q53SF7 1-410); experiment: SPR; PACSIN2 SH3 domain immobilised on a PEG chip by amine coupling (Reichert SR7500DC); 25°C; PBS (10 mM KH2PO4, 137 mM NaCl, 2.7 mM KCl, pH 7.4); 3 min association, 10 min dissociation; settings: both partners purified
T1 construct: Cobll1 N-terminal region, residues 1-410, cloned into pGEX-4T-1; source: E. coli BL21-CodonPlus (DE3), purified (GST column, tag cleavage, ion exchange, Superdex)

[2] = target: T2, SH3BP1-CT (C-terminal region of SH3BP1, residues 541-701) (UniProt Q9Y3L3 541-701); experiment: as above; settings: both partners purified
T2 construct: SH3BP1 C-terminal region containing all proline-rich motifs, residues 541-701, cloned into pET-21a; also called SH3PB1-CT; source: E. coli BL21-CodonPlus (DE3), purified (Ni column, Superdex 75)
T2 sequence (looked up): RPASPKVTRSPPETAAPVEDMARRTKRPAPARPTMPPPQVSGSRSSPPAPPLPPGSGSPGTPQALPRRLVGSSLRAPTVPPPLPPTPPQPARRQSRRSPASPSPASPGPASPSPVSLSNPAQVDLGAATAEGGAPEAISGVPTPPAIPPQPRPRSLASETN

T1 sequence (Q53SF7 1-410): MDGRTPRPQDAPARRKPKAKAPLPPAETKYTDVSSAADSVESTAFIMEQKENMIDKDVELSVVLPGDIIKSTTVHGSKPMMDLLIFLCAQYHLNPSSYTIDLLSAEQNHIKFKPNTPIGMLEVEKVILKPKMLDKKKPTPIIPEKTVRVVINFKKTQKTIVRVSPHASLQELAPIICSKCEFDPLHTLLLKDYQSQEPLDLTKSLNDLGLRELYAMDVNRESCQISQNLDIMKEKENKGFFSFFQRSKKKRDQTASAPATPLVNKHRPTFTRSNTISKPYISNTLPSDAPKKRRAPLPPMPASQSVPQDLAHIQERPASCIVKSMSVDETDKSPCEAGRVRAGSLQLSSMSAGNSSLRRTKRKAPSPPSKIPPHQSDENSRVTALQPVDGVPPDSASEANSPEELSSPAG

B1: PACSIN2 SH3 domain (residues 430-486), purified (domain or fragment)
chain: not shown
notes: 15N- or 15N,13C-labelled for NMR, unlabelled for SPR; source: E. coli BL21-CodonPlus (DE3), purified (GST column, tag cleavage, ion exchange, Superdex)
Kd [1]: 0.0258 µM
Kd [2]: 2.2 µM
